Source: patent US20220204624A1

Tests used:
Assay in all cases: Octet (BLI), global fit, 1:1 binding model
[1] = biological target: human LAG-3 (human) (UniProt P18627)
[2] = biological target: cynomolgus CTLA-4 (cynomolgus) (UniProt G7PL88)
[3] = biological target: cynomolgus LAG-3 (cynomolgus)
[4] = biological target: human CTLA-4 (human) (UniProt P16410)
human CTLA-4 (human), sequence (P16410 36-161 limits assumed): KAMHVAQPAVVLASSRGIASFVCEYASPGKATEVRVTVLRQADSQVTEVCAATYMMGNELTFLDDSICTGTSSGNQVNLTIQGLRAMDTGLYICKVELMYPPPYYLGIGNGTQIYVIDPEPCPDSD

cynomolgus CTLA-4 (cynomolgus), sequence (G7PL88 entry or part of it limits assumed, form in doubt): as the sequence (P16410 36-161 limits assumed) above, with S14N, L106M counted along it
human LAG-3 (human), sequence (P18627 23-450 limits assumed): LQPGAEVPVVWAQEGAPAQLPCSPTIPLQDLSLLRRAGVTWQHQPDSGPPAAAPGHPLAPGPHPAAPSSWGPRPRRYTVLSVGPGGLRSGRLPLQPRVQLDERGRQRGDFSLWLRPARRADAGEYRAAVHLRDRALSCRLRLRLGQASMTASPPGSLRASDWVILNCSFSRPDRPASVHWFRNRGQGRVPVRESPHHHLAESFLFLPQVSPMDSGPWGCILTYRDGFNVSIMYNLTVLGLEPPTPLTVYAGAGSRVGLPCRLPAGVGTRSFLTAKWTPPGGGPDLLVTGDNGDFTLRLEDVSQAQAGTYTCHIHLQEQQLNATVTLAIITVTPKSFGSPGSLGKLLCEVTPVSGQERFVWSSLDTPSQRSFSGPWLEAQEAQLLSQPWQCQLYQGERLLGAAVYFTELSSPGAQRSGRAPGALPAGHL

Kd [1]: 1.4 nM
Kd [2]: 17.6 nM
Kd [3]: 1.3 nM
Kd [4]: 4.6 nM
Substance: XmAb22841 (bispecific antibody)
